According to PMC4065035, “A Highly Functional Synthetic Phage Display Library Containing over 40 Billion Human Antibody Clones” (PLoS ONE, 2014):

What was measured:
[1] = biological target: T1, human recombinant BCD domains of tenascin-C (Homo sapiens, UniProt P24821); assay: SPR; Biacore 3000; CM5 chip coated with murine or human recombinant BCD domains of tenascin-C; antibody (monomeric fraction of scFv, or SIP) injected at different concentrations, 10 µL/min; regeneration with 10 mM HCl; conditions: both partners purified
T1 construct: tenascin-C, human, alternatively spliced segment of the three fibronectin type-III homology domains B, C and D; AVI-Tag followed by the His-Tag at the C-terminus; Purification of the human construct is not clearly told; also called human BCD; human BCD domain; source: E. coli (pUC119 vector)

[2] = biological target: T2, murine recombinant BCD domains of tenascin-C (Mus musculus, UniProt Q80YX1); assay: as above; conditions: both partners purified
T2 construct: tenascin-C, mouse, alternatively spliced segment of the three fibronectin type-III homology domains B, C and D; A biotinylated version was used for the panning; the Biacore chip was a coated CM5 chip; also called murine BCD; murine BCD antigen; source: E. coli (pQE12 vector), purified over NiNTA resin

B1: scFv(G5), human antibody G5 in monomeric scFv format (scFv, V domains shown)
VH: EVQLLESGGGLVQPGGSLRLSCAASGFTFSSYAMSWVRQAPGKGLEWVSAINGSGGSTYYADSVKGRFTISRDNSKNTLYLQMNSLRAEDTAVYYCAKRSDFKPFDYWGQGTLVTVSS
VL: SSELTQDPAVSVALGQTVRITCQGDSLRSYYASWYQQKPGQAPVLVIYGKNNRPSGIPDRFSGSSSGNTASLTITGAQAEDEADYYCNSSGFPRTLVVFGGGTKLTVL
notes: VH of G5; library VH is on the DP47 germline with S52N (numbering of Tomlinson et al.) and a randomised CDR3 (residues 95-100); flexible polypeptide linker that connects VH and VL in the library's scFv format; VL of G5; Library scFv are detected by the anti-myc antibody 9E10; also called G5 antibody clone; anti-BCD antibody G5; source: E. coli (pHEN1 phagemid, IPTG induction), purified over …
Kd [1]: 27 nM
koff [1]: 0.003 s⁻¹
kon [1]: 110000 M⁻¹ s⁻¹
Kd [2]: 31 nM
koff [2]: 0.0025 s⁻¹
kon [2]: 79000 M⁻¹ s⁻¹
